Key:
[1] = tested on: CCCCCC(=O)CC(=O)N[C@H]1CCOC1=O; experiment: purified protein; conditions: pH 8.3; 37.0 °C
[2] = tested on: CCCC(=O)CC(=O)N[C@H]1CCOC1=O; experiment: purified protein; conditions: pH 8.3; 37.0 °C
[3] = target: GKL (quorum-quenching lactonase from Geobacillus kaustophilus) (Geobacillus kaustophilus, UniProt Q5KZU5, E101G/R230C/D266N)

Compound	Km [1]	kcat/Km [1]	Km [2]	kcat/Km [2]	X-ray crystal structure, 2.2 Å [3]
GKL (quorum-quenching lactonase from Geobacillus kaustophilus) (Geobacillus kaustophilus HTA426)	5.5 ± 2.1 mM	38 M⁻¹ s⁻¹			
GKL (quorum-quenching lactonase from Geobacillus kaustophilus) (Geobacillus kaustophilus HTA426; E101G/R230C)	3.0 ± 0.4 mM	700 M⁻¹ s⁻¹	22 ± 12 mM	50 M⁻¹ s⁻¹	
CCCC(=O)NC1CCOC1=O (racemic) [C4-HSL, N-butyryl-L-homoserine lactone]					its catalytically inactive variant E101G/R230C/D266N with the quorum-molecule C4-HSL bound in the active site
GKL (quorum-quenching lactonase from Geobacillus kaustophilus) (Geobacillus kaustophilus HTA426; E101N)	4.0 ± 3.2 mM	53 M⁻¹ s⁻¹			

Source: article PMC3629905 (Biochemistry, 2013)
